Where “and” joins values, the source holds several entries; their conditions need not be identical. Identical values can stand only once. Like-named read-outs stand apart in the source and are kept apart here.
B1: NT-4: neurotrophin 4, ligand of TrkB (protein, UniProt P34130 81-210, looked up)
Neurotrophin-4: GVSETAPASRRGELAVCDAVSGWVTDRRTAVDLRGREVEVLGEVPAAGGSPLRQYFFETRCKADNAEEGGPGAGGGGCRGVDRRHWVSECKAKQSYVRALTADAQGRVGWRWIRIDTACVCTLLSRTGRA
B2: NGF: nerve growth factor, neurotrophin, preferred ligand of TrkA (protein, UniProt P01139 122-241, looked up)
Beta-nerve growth factor: SSTHPVFHMGEFSVCDSVSVWVGDKTTATDIKGKEVTVLAEVNINNSVFRQYFFETKCRASNPVESGCRGIDSKHWNSYCTTTHTFVKALTTDEKQAAWRFIRIDTACVCVLSRKATRRG
B3: BDNF: brain-derived neurotrophic factor, neurotrophin, ligand of TrkB (protein, UniProt P23560 19-247, looked up)
Neurotrophic factor BDNF …: APMKEANIRGQGGLAYPGVRTHGTLESVNGPKAGSRGLTSLADTFEHVIEELLDEDQKVRPNEENNKDADLYTSRVMLSSQVPLEPPLLFLLEEYKNYLDAANMSMRVRRHSDPARRGELSVCDSISEWVTAADKKTAVDMSGGTVTVLEKVPVSKGQLKQYFYETKCNPMGYTKEGCRGIDKRHWNSQCRTTQSYVRALTMDSKKRIGWRFIRIDTSCVCTLTIKRGR

Assays:
[1] = test system: thapsigargin-induced NFAT-bla reporter activity; test: Effect of RNAi oligos on thapsigargin-induced NFAT-bla reporter activity in TrkA-, TrkB- and TrkC-NFAT-bla CHO-K1 cells; assay type: cell-based; details: all three cell lines, 50 nM RNAi oligo, Thapsigargin 30 nM 5 h
Method: Cells were plated in 96-well assay plates (Corning, catalog number 3603) at 6,000 cells/well in 100 µL growth medium (DMEM containing 10% dialyzed FBS, 0.1 mM NEAA and 25 mM HEPES), and incubated in 37°C, 5% CO2 incubator overnight. Next morning, Stealth™ RNAi (Invitrogen, catalog number 10620318) and Lipofectamine^TM RNAiMAX (Invitrogen, catalog number 13778) complexes were prepared according to the manufacturer’s protocol and added to the wells (50 nM RNAi oligos and 1µL RNAiMAX/well). RNAi oligo targeting for beta-lactamase was used as the positive control and a random-sequenced oligo with 48% GC content (Med GC) as the negative control. A set of 2 oligos for each Trk was used:
Cells were incubated with RNAi oligos at 37°C for 32 hours, followed by a medium change. Cells were incubated in Assay Medium at 37 °C for 16 hours and then stimulated with respective ligands (NGF, 0.77 nM; BDNF, 1 nM; NT-3, 0.72 nM and Thapsigargin, 30 nM) for 5 hours before beta-lactamase assay was performed as described above.

[2] = test system: Thapsigargin-induced NFAT reporter activity, TrkC-NFAT-bla CHO-K1 cells; test: Inhibition of Thapsigargin-induced NFAT reporter activity in TrkC-NFAT-bla CHO-K1 cells; assay type: cell-based; details: for IC50: TrkC cells, Thapsigargin 8 nM, 5 h, * values may not be accurate, curves did not reach saturation, read-out: IC50, TrkC, Thaps
Method: (§1) Cells in a sub-confluency state (or cryopreserved cells) were resuspended in Assay Medium (DMEM with GlutaMAX™ (Invitrogen, catalog number 10569) supplemented with 0.1% dialyzed FBS, 0.1 mM NEAA, 25 mM HEPES, 100 U/mL Penicillin and 100 µg/mL Streptomycin) and plated in a 384-well assay plate (Corning, Lowell, MA, catalog number 3712) at 10,000 cells (32 μL) per well. 32 μL of Assay Medium without cells were plated in Cell-free Control wells on the same plate. 4 µL 1% DMSO was added to each well to reach final DMSO concentration of 0.1% to mimic the screening situation where compounds dissolved in DMSO are added to test wells. Cells were then stimulated with 4 µL/well 10 x ligands (NGF, BDNF, NT-4 (Invitrogen, catalog number PHC7024), NT-3 or Thapsigargin (Sigma, St. Louis, MO)) over the indicated concentration range (1 pM ~ 50000 pM) for 5 hours before adding 8 µL/well 6X LiveBLAzer™-FRET B/G Substrate mixture (Invitrogen, catalog number K1096) for 2 hours. Fluorescence intensity at excitation 406 nm and emission 460 nm and 530 nm were obtained using Tecan Safire^2 fluorescence plate reader (Tecan, Durham, NC) (Table 1). After subtracting the average fluorescence intensity from the Cell-free Control wells, the 460nm/530nm emission ratio was calculated. Response Ratio is a measurement of the assay window and is calculated as the 460nm/530nm Emission Ratio of the stimulated wells divided by the 460nm/530nm Emission Ratio of the unstimulated wells. Response Ratios were plotted against test ligand concentrations in log scale and then analyzed using Prism software (GraphPad Software, Inc. San Diego, CA). Sigmoidal dose-response equation with varying slope was used to fit the data and generate EC50 values. Z’-factor values were calculated as: Z’-factor = 1 - [(3 x stdevunstim + 3 x stdevmaxstim) / (avgmaxstim – avgunstim)].
(§2) Cells were then stimulated with 4 µL of neurotrophins at 10 x EC80 concentrations (EC80 concentrations are: NGF, 0.77 nM; BDNF, 1 nM; NT-3, 0.72 nM; Thapsigargin, 8 nM) for 5 hours before beta-lactamase assay was performed as described above.

[3] = test system: Thapsigargin-induced NFAT reporter activity, TrkA-NFAT-bla CHO-K1 cells; test: Inhibition of Thapsigargin-induced NFAT reporter activity in TrkA-NFAT-bla CHO-K1 cells; assay type: cell-based; details: for IC50: TrkA cells, Thapsigargin 8 nM, 5 h, * values may not be accurate, curves did not reach saturation, read-out: IC50, TrkA, Thaps
Method: as §1, §2

[4] = test system: Thapsigargin-induced NFAT reporter activity, TrkB-NFAT-bla CHO-K1 cells; test: Inhibition of Thapsigargin-induced NFAT reporter activity in TrkB-NFAT-bla CHO-K1 cells; assay type: cell-based; details: for IC50: TrkB cells, Thapsigargin 8 nM, 5 h, * values may not be accurate, curves did not reach saturation, read-out: IC50, TrkB, Thaps
Method: as §1, §2

[5] = biological target: T1, human TrkB (Homo sapiens, UniProt Q16620); test: Inhibition of BDNF-induced beta-lactamase activity in TrkB-NFAT-bla CHO-K1 cells; assay type: cell-based
T1 construct: Full length human TRKA, TRKB and TRKC cDNAs were synthesized by Blue Heron Biotechnology; expressed in transfected cells

[6] = biological target: T2, human TrkC (Homo sapiens, UniProt Q16288); test: Inhibition of NT-3-induced beta-lactamase activity in TrkC-NFAT-bla CHO-K1 cells; assay type: cell-based
T2 construct: Full length human TRKA, TRKB and TRKC cDNAs were synthesized by Blue Heron Biotechnology; expressed in transfected cells
Method: as §1

[7] = test system: TrkA; design: method as in PMID 7683492; details: cited from earlier work
[8] = biological target: T3, human TrkA (Homo sapiens, UniProt P04629); test: Inhibition of NGF-induced beta-lactamase activity in TrkA-NFAT-bla CHO-K1 cells; assay type: cell-based
T3 construct: Full length human TRKA, TRKB and TRKC cDNAs were synthesized by Blue Heron Biotechnology; expressed in transfected cells

[9] = test system: NFAT-bla reporter, Trk-NFAT-bla CHO-K1 cells; test: Thapsigargin stimulation of Trk-NFAT-bla CHO-K1 cell lines; assay type: cell-based; details: used for stimulation in inhibitor assay
Method: as §1, with “Cells were then stimulated with 4 µL/well 10 x ligands (NGF, BDNF, NT-4 (Invitrogen, catalog number PHC7024), NT-3 or Thapsigargin (Sigma, St. Louis, MO)) over the indicated concentration range (1 pM ~ 50000 pM) for 5 hours before adding 8 µL/well 6X LiveBLAzer™-FRET B/G Substrate mixture (Invitrogen, catalog number K1096) for 2 hours.” left out, “Sigmoidal dose-response equation with varying slope was used to fit the data and generate EC50 values. Z’-factor values were calculated as: Z’-factor = 1 - [(3 x stdevunstim + 3 x stdevmaxstim) / (avgmaxstim – avgunstim)].” left out

[10] = biological target: T1, human TrkB; test: Neurotrophin dose response, beta-lactamase reporter assay in TrkB-NFAT-bla CHO-K1 cells; assay type: cell-based; details: for maximum response ratio, TrkB-NFAT-bla CHO-K1: 460nm/530nm ratio stimulated vs unstimulated; for EC50: 5 h stimulation, 0.1% DMSO
Text: (§3) NFAT beta-lactamase reporter line NFAT-bla CHO-K1 cells (Invitrogen, Carlsbad, CA, catalog number K1078) were transfected using Lipofectamine™ LTX transfection reagent (Invitrogen, Carlsbad, CA) with pcDNA6-TRKA, pcDNA6-TRKB and pcDNA6-TRKC and selected for blasticidin-resistance. Blasticidin-resistant TrkA transfected cells were stimulated with NGF (Invitrogen, catalog number 13257-019), TrkB transfected cells with BDNF (Invitrogen, catalog number PHC7074) and TrkC transfected cells with NT-3 (Invitrogen, catalog number PHC7034) for 5 hours before neurotrophin stimulated beta-lactamase expressing cells were collected by FACS as single cells onto 96-well plates. The survived clones that responded to the respective ligand were selected and expanded. The clone with the best response to each ligand was further tested in a 384-well format for the dose response of neurotrophins and inhibitors and in a 96-well format for RNAi knock-down.
as §1

[11] = biological target: T2, human TrkC; test: Neurotrophin dose response, beta-lactamase reporter assay in TrkC-NFAT-bla CHO-K1 cells; assay type: cell-based; details: for EC50: 5 h stimulation, 0.1% DMSO, * values may not be accurate, curves did not reach saturation; for response of TrkC-NFAT-bla CHO-K1 cells (in words): up to 50 nM
Text: as §3, §1

[12] = biological target: T3, human TrkA; test: Neurotrophin dose response, beta-lactamase reporter assay in TrkA-NFAT-bla CHO-K1 cells; assay type: cell-based; details: for maximum response ratio / response over baseline, TrkA-NFAT-bla CHO-K1: 460nm/530nm ratio stimulated vs unstimulated; for EC50: 5 h stimulation, 0.1% DMSO, * values may not be accurate, curves did not reach saturation; for response of TrkA-NFAT-bla CHO-K1 cells (in words): up to 50 nM
Text: as §3, §1

[13] = 30 min pretreatment, BDNF at EC80 1 nM, 5 h, read-out: IC50, TrkB, BDNF
[14] = 30 min pretreatment, NT-3 at EC80 0.72 nM, 5 h, read-out: IC50, TrkC, NT-3
[15] = used for stimulation in inhibitor assay
[16] = at the highest concentration tested

T3 sequence (P04629 33-796): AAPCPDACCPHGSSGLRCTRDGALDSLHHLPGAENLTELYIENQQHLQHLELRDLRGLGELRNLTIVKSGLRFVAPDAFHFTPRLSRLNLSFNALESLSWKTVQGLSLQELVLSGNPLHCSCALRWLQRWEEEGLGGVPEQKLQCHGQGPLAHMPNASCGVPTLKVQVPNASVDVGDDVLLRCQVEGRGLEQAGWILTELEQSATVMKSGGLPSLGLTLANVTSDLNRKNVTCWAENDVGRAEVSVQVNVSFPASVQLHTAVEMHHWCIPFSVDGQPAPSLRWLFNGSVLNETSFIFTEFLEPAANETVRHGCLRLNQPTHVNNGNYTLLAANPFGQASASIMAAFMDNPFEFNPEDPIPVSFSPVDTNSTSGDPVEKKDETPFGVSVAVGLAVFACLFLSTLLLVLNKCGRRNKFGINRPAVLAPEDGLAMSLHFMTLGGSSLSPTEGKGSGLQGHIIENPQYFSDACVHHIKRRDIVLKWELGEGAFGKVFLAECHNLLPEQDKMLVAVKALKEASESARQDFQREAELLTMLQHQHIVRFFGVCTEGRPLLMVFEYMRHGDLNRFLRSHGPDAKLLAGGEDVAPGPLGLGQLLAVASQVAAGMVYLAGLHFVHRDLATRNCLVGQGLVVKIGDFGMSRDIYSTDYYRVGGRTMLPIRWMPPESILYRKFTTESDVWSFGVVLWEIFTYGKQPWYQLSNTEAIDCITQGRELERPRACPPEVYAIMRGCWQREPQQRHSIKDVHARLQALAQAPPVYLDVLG
T1 sequence (Q16620 32-838 isoform Q16620-4 limits assumed): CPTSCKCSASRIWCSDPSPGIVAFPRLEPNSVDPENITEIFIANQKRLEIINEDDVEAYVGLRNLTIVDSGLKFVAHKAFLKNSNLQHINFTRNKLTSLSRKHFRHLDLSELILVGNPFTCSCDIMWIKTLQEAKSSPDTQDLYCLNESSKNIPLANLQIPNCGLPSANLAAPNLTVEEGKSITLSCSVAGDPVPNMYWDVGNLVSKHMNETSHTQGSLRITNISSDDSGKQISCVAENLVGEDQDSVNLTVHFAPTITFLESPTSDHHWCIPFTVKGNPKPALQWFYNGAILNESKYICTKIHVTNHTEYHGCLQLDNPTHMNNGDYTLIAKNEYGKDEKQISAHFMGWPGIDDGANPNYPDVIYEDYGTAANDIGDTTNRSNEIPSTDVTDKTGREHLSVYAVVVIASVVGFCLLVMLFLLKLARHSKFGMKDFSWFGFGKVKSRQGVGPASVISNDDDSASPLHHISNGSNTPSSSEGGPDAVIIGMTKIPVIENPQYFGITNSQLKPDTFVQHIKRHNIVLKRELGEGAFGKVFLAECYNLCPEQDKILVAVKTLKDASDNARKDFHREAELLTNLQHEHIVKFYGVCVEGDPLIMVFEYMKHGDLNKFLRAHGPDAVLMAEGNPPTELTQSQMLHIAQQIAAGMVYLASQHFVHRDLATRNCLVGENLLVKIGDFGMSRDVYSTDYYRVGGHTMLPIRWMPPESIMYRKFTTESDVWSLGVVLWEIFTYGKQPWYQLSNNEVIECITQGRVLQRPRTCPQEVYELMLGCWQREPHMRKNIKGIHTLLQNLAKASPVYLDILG
T2 sequence (Q16288 32-825 isoform Q16288-3 limits assumed): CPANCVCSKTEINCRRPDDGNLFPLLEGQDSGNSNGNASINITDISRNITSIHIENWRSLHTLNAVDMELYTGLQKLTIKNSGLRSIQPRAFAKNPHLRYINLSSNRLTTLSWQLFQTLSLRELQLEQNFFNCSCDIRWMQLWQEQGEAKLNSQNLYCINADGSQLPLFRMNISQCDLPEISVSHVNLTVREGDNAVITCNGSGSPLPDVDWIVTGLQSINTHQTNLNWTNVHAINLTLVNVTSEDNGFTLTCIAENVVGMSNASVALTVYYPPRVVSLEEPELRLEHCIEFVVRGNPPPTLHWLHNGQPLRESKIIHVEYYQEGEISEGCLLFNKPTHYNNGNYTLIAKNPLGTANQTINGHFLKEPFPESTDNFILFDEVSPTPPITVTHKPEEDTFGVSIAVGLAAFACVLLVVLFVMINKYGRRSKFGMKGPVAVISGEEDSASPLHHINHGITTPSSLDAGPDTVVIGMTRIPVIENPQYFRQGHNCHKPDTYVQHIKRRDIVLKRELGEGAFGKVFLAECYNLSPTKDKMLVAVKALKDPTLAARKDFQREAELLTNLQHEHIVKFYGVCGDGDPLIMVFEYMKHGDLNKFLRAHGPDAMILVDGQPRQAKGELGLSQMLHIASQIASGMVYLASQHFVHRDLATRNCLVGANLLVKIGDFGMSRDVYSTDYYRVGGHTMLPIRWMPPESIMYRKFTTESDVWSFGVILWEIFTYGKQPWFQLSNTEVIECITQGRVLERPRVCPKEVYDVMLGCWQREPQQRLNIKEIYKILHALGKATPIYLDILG

Molecule | IC50 [2] | IC50 [3] | IC50 [4] | maximum response ratio, TrkB-NFAT-bla CHO-K1 [10] | EC50 [10] | EC50 [11] | EC50 [12] | response of TrkC-NFAT-bla CHO-K1 cells (in words) [11] | further results
TRKB2: Stealth RNAi oligo for TrkB, ACACCACGAACAGAAGUAAUGAAAU (Stealth RNAi oligo, modification pattern not given here) |  |  |  |  |  |  |  |  | inhibitory effect on thapsigargin-induced NFAT-bla reporter activity [1]: about 50%
Cn1cc(/C=C2\C(=O)Nc3cccnc32)c2ccccc21 [GW441756] | 8970 nM | 2830 nM | 8200 nM |  |  |  |  |  | 
CC(C)(C)c1cc(/C=C(\C#N)C(N)=S)cc(C(C)(C)C)c1O [AG879] | 231 nM | 112 nM | 51 nM |  |  |  |  |  | IC50 [5, 13]: 1010 nM; IC50 ([5]; BDNF-induced, read-out: IC50, TrkB-mediated NFAT-bla reporter activity): ~1000 nM; IC50 [6, 14]: 1310 nM; IC50 ([6]; NT-3-induced, read-out: IC50, TrkC-mediated NFAT-bla reporter activity): ~1000 nM; concentrations inhibiting NGF induced TrkA autophosphorylation and PLC-γ phosphorylation [7]: micro-molar concentrations; IC50 ([8]; 30 min pretreatment, NGF at EC80 0.77 nM, 5 h, read-out: IC50, TrkA, NGF): 1330 nM; IC50 ([8]; NGF-induced, read-out: IC50, TrkA-mediated NFAT-bla reporter activity): ~1000 nM
C/C=C(/C)C(=O)O[C@H]1C(C)=C2[C@H]([C@@H]1OC(=O)CCCCCCC)[C@@](C)(OC(C)=O)C[C@H](OC(=O)CCC)[C@@]1(O)[C@H]2OC(=O)[C@@]1(C)O [Thapsigargin] |  |  |  |  |  |  |  |  | EC80 concentration, Thapsigargin [9]: 8 nM
TRKC2: Stealth RNAi oligo for TrkC, CCAGACCAAUCUGAACUGGACCAAU (Stealth RNAi oligo, modification pattern not given here) |  |  |  |  |  |  |  |  | effect on thapsigargin-induced NFAT-bla reporter activity (in words) [1]: did not inhibit
NT-3: neurotrophin 3, preferred ligand of TrkC |  |  |  | 13 | 2.5 nM | 0.093 nM and 0.09 nM | ~16 nM and 16 nM |  | maximum response ratio, TrkC-NFAT-bla CHO-K1 ([11]; […]nm/530nm ratio stimulated vs unstimulated): 8.5; EC80 concentration, TrkC cells [11, 15]: 0.72 nM; maximum response ratio / response over baseline, TrkA-NFAT-bla CHO-K1 [12]: 3 fold
COC(=O)[C@@]1(O)C[C@H]2O[C@]1(C)n1c3ccccc3c3c4c(c5c6ccccc6n2c5c31)C(=O)NC4 [K252a] | 500 nM | 570 nM | > 1000 nM |  |  |  |  |  | IC50 in words, BDNF-induced beta-lactamase activity in TrkB cells [5]: low nano-molar; IC50 [5, 13]: 11 nM; IC50 in words, NT-3-induced beta-lactamase activity in TrkC cells [6]: low nano-molar; IC50 [6, 14]: 30 nM; effect on Thapsigargin induced reporter activity, TrkC cells (in words) [2, 16]: partial inhibitory effect; effect on Thapsigargin induced reporter activity, TrkA cells (in words) [3, 16]: partial inhibitory effect; effect on Thapsigargin induced reporter activity, TrkB cells (in words) [4, 16]: partial inhibitory effect
B1 |  |  |  | 13 | 3.5 nM | > 50 nM | > 50 nM | did not show any response | response of TrkA-NFAT-bla CHO-K1 cells (in words) [12]: minimal effect
B2 |  |  |  |  | > 50 nM | > 50 nM | 0.044 nM | did not show any response | response of TrkB-NFAT-bla CHO-K1 cells (in words) ([10]; up to 50 nM): did not respond at all; maximum response ratio / response over baseline, TrkA-NFAT-bla CHO-K1 [12]: 5.5 fold; EC50 ([12]; listed as NGF 2.5s): 0.04 nM; EC80 concentration, TrkA cells [12, 15]: 0.77 nM
B3 |  |  |  | 14 | 0.39 nM | 28 nM | > 50 nM | only at the highest concentration (50 nM) tested | EC80 concentration, TrkB cells [10, 15]: 1 nM; response of TrkA-NFAT-bla CHO-K1 cells (in words) [12]: minimal effect
